Experimental data published in the supplement of paper PMC7877785.
± gives the uncertainty stated by the source.

Experiment: self-splicing fitness, log relative to wild type (ln ratio); higher = more splicing; Tetrahymena group I intron in knt gene, E. coli kanamycin selection, DiMSum; sequences stand for … in CUCUCU…GGAGGGAAAAGUUAUCAGGCAUGCACCUGGUAGCUAGUCUUUAAACCAAUAGAUUGCAUCGGUUUAAAAGGCAAGACCGUCAAAUUGCGGGAAAGGGGUCAACAGCCGUUCAGUACCAAGUCUCAGGGGAAACUUUGAGAUGGCCUUGCAAAGGGUAUGGUAAUAAGCUGACGGACAUGGUCCUAACCACGCAGCCAAGUCCUAAGUCAACAGAUCUUCUGUUGAUAUGGAUGCAGUUCACAGACUAAAUGUCGGUCGGGGAAGAUGUAUUCUUCUCAUAAGAUAUAGUCGGACCUCUCCUUAAUGGGAGCUAGCGGAUGAAGUGAUGCAACACUGGAGCCGCUGGGAACUAAUUUGUAUGCGAAAGUAUAUUGAUUAGUUUUGGAGUACUCGUGGUCG
Outline: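 Colonies from six replicate transformations of E. coli BL21(DE3) were pooled and amplicon-sequenced on an Illumina HiSeq 2500. The library placed an intron with all eight P1ex-region nucleotides randomised inside the knt kanamycin-resistance gene on pET-22b(+), and cells grew overnight at 37°C or 30°C on LB agar with or without 25 μg/mL kanamycin (plus 100 μg/mL carbenicillin, 50 μM IPTG, 0.2% rhamnose). Fitness is the DiMSum error-weighted combination of wild-type-normalised replicate fold changes, kanamycin versus none.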

Row | Sequence | self-splicing fitness (ln) (30 °C) | self-splicing fitness (ln) (37 °C)
1 | GGGGAGCAAUAUUACGGUUU | -1.27 ± 0.24 | -0.456 ± 0.29
2 | AAAUAGCAAUAUUACGGGGG | -2.94 ± 0.36 | -2.11 ± 0.31
3 | CCUGAGCAAUAUUACGAGUC | – | -2.36 ± 0.34
4 | ACAAAGCAAUAUUACGCGCG | -1.11 ± 0.078 | -0.453 ± 0.099
5 | CUUGAGCAAUAUUACGUGUC | -2.02 ± 0.22 | -2.28 ± 0.26
6 | CAUGAGCAAUAUUACGAGCC | -3.05 ± 0.41 | –
7 | AAUUAGCAAUAUUACGCGAG | -1.84 ± 0.12 | -0.918 ± 0.12
8 | CGCCAGCAAUAUUACGUUCC | -2.71 ± 0.16 | -1.67 ± 0.37
9 | UAUUAGCAAUAUUACGGGCA | -0.498 ± 0.19 | -0.39 ± 0.17
10 | CUUGAGCAAUAUUACGAUCG | -1.2 ± 0.16 | -0.798 ± 0.23
11 | AACAAGCAAUAUUACGGGGA | -3.21 ± 0.14 | -0.987 ± 0.087
12 | GGGUAGCAAUAUUACGAUAG | -2.32 ± 0.37 | –
13 | GCUCAGCAAUAUUACGUCGA | -3.22 ± 0.17 | -2.45 ± 0.16
14 | CCUUAGCAAUAUUACGCCGU | -2.66 ± 0.22 | -2.18 ± 0.24
15 | GUCCAGCAAUAUUACGUCGA | -0.796 ± 0.2 | -0.589 ± 0.19
16 | AGUAAGCAAUAUUACGAUAG | -3.75 ± 0.33 | -2.86 ± 0.31
17 | GGAGAGCAAUAUUACGCGAC | -2.83 ± 0.21 | -2.22 ± 0.34
18 | GUGUAGCAAUAUUACGUUUC | -2.63 ± 0.13 | -1.92 ± 0.13
19 | GAACAGCAAUAUUACGGGCA | -0.822 ± 0.096 | -0.223 ± 0.093
20 | CUGAAGCAAUAUUACGCUAC | -3.7 ± 0.47 | –
21 | CGUUAGCAAUAUUACGAGAG | -2.83 ± 0.25 | 0.0196 ± 0.17

Row | Sequence | self-splicing fitness (ln) (30 °C) | self-splicing fitness (ln) (37 °C)
22 | CAGAAGCAAUAUUACGCUCA | -1.61 ± 0.11 | 0.0994 ± 0.11
23 | UAUCAGCAAUAUUACGAAUA | -0.934 ± 0.18 | -0.486 ± 0.11
24 | GAUCAGCAAUAUUACGACUG | -1.21 ± 0.082 | -0.166 ± 0.13
25 | UCUGAGCAAUAUUACGCUUG | -4.34 ± 0.46 | -2.31 ± 0.3
26 | AAACAGCAAUAUUACGUCUA | -1.21 ± 0.065 | -0.311 ± 0.07
27 | CAGAAGCAAUAUUACGGGUA | -2.8 ± 0.16 | -2.25 ± 0.13
28 | CUGUAGCAAUAUUACGGAUC | -3.93 ± 0.3 | -3.45 ± 0.39
29 | CUACAGCAAUAUUACGCGGA | -3.06 ± 0.25 | -3 ± 0.27
30 | AGACAGCAAUAUUACGAGUG | -4.11 ± 0.16 | -1.9 ± 0.092
31 | CGGCAGCAAUAUUACGGUAU | -3.82 ± 0.19 | -3.18 ± 0.22
32 | GCAUAGCAAUAUUACGCUAC | -3.61 ± 0.34 | -2.11 ± 0.27
33 | AGAAAGCAAUAUUACGGGUA | -1.32 ± 0.092 | -1.01 ± 0.095
34 | CGCCAGCAAUAUUACGUCUU | -3.58 ± 0.25 | -1.45 ± 0.2
35 | UUCAAGCAAUAUUACGAGGU | -3.41 ± 0.29 | -1.89 ± 0.23
36 | GGGAAGCAAUAUUACGUAUG | -2.95 ± 0.16 | -1.11 ± 0.15
37 | CUUUAGCAAUAUUACGGUAA | -2.37 ± 0.23 | -2.12 ± 0.26
38 | GCAAAGCAAUAUUACGAGAC | – | -2.63 ± 0.43
39 | CAGAAGCAAUAUUACGCACG | -0.596 ± 0.072 | -0.261 ± 0.08
40 | AGAUAGCAAUAUUACGUCAA | -1.15 ± 0.09 | -1.03 ± 0.1
41 | CUAAAGCAAUAUUACGGCUU | -3.8 ± 0.21 | -2.44 ± 0.29
42 | AACGAGCAAUAUUACGCACU | -1.23 ± 0.11 | -0.611 ± 0.11

Row | Sequence | self-splicing fitness (ln) (30 °C) | self-splicing fitness (ln) (37 °C)
43 | AAUAAGCAAUAUUACGUACU | 0.573 ± 0.1 | -0.654 ± 0.095
44 | GACUAGCAAUAUUACGGGGG | -3.39 ± 0.27 | -1.46 ± 0.25
45 | GUGGAGCAAUAUUACGCAUU | -2.84 ± 0.22 | -1.14 ± 0.13
46 | GAAAAGCAAUAUUACGAUCU | -0.472 ± 0.075 | -0.478 ± 0.085
47 | UGCGAGCAAUAUUACGGGGU | -2.77 ± 0.2 | -3.12 ± 0.35
48 | AGAGAGCAAUAUUACGACAC | – | -1.4 ± 0.26
49 | AGCUAGCAAUAUUACGCCUA | -0.93 ± 0.14 | -0.324 ± 0.13
50 | UACUAGCAAUAUUACGGACU | -0.895 ± 0.12 | -0.214 ± 0.17
51 | GAGUAGCAAUAUUACGAUCG | -1.06 ± 0.11 | -0.986 ± 0.12
52 | AUGCAGCAAUAUUACGGAUA | -2.99 ± 0.17 | -2.22 ± 0.17
53 | CCUUAGCAAUAUUACGCAGU | -3.81 ± 0.23 | -2.32 ± 0.23
54 | CUAAAGCAAUAUUACGACGC | – | -1.39 ± 0.45
55 | UAGCAGCAAUAUUACGCUAU | -3.88 ± 0.23 | -3.49 ± 0.37
56 | CGUCAGCAAUAUUACGGGUU | -3.44 ± 0.17 | -2.56 ± 0.15
57 | CUCGAGCAAUAUUACGUGGA | -2.89 ± 0.27 | -1.88 ± 0.16
58 | UCGCAGCAAUAUUACGUCGU | -1.95 ± 0.081 | -0.965 ± 0.096
59 | UUCAAGCAAUAUUACGUGGU | -4.01 ± 0.2 | -2.7 ± 0.17
60 | CUUAAGCAAUAUUACGUUUC | -3.98 ± 0.17 | -3.23 ± 0.28
61 | CGGCAGCAAUAUUACGGCAG | -0.677 ± 0.095 | -0.796 ± 0.11
62 | AUUUAGCAAUAUUACGUGGG | -3.33 ± 0.3 | -2.44 ± 0.3
